The record followed here is IntAct's records for PubMed 29849149.

B1: Beclin-1 (Mus musculus), O88597 (parent)
chain: MEGSKASSSTMQVSFVCQRCSQPLKLDTSFKILDRVTIQELTAPLLTTAQAKPGETQEEEANSGEEPFIETRQDGVSRRFIPPARMMSTESANSFTLIGEASDGGTMENLSRRLKVTGDLFDIMSGQTDVDHPLCEECTDTLLDQLDTQLNVTENECQNYKRCLEILEQMNEDDSEQLQRELKELALEEERLIQELEDVEKNRKVVAENLEKVQAEAERLDQEEAQYQREYSEFKRQQLELDDELKSVENQVRYAQIQLDKLKKTNVFNATFHIWHSGQFGTINNFRLGRLPSVPVEWNEINAAWGQTVLLLHALANKMGLKFQRYRLVPYGNHSYLESLTDKSKELPLYCSGGLRFFWDNKFDHAMVAFLDCVQQFKEEVEKGETRFCLPYRMDVEKGKIEDTGGSGGSYSIKTQFNSEEQWTKALKFMLTNLKWGLAWVSSQFYNK

This assay covers variants of B1. The settings on record: with bcl2_mouse Bcl2, P10417.
Chain of bcl2_mouse Bcl2, P10417 (P10417 whole entry): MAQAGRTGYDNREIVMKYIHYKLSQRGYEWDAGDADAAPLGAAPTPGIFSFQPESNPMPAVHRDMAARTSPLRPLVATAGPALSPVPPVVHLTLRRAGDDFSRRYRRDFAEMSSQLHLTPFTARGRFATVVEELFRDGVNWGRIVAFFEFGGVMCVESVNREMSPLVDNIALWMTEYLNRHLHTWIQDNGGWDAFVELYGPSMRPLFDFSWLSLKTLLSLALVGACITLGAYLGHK
As for MEGSKASSSTMQVSFVCQRCSQPLKLDTSFKILDRVTIQELTAPLLTTAQAKPGETQEEEANSGEEPFIETRQDGVSRRFIPPARMMSTESANSFTLIGEASDGGTMENLSRRLKVTGDLADIMSGQTDVDHPLCEECTDTLLDQLDTQLNVTENECQNYKRCLEILEQMNEDDSEQLQRELKELALEEERLIQELEDVEKNRKVVAENLEKVQAEAERLDQEEAQYQREYSEFKRQQLELDDELKSVENQVRYAQIQLDKLKKTNVFNATFHIWHSGQFGTINNFRLGRLPSVPVEWNEINAAWGQTVLLLHALANKMGLKFQRYRLVPYGNHSYLESLTDKSKELPLYCSGGLRFFWDNKFDHAMVAFLDCVQQFKEEVEKGETRFCLPYRMDVEKGKIEDTGGSGGSYSIKTQFNSEEQWTKALKFMLTNLKWGLAWVSSQFYNK [F121A], the “effect of a mutation on the interaction” value is given as “decreasing interaction strength”.
